Laboratory results taken from patent publication US20120073001A1, “METHODS AND COMPOSITIONS FOR […] OR […] […]” (THE JOHNS HOPKINS UNIVERSITY, published 2012).

Target: T1, mouse MrgprC11, endogenous in wild-type DRG neurons (mouse)
T1 chain: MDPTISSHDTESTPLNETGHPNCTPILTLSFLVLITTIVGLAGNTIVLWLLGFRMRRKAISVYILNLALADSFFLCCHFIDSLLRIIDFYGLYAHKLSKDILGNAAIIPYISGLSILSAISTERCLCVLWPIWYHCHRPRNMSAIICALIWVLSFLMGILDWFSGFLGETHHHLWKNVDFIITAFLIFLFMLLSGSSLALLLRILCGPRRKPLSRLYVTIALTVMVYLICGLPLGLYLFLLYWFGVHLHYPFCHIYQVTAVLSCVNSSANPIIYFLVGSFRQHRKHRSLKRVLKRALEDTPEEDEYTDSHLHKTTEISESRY
Assay: cell-based or functional assay

B1: BAM8-22 (peptide)
peptide: VGRPEWWMDYQKRYG
- increased [Ca2+]i, calcium imaging of WT and Mrgpr-cluster deletion DRG neurons: 3.6 % of WT DRG neurons
